{"source": "IntAct's records for PubMed 15192089", "parents": {"B1": {"name": "Tyrosine-protein phosphatase non-receptor type 2 (Homo sapiens), P17706-1 (parent)", "chain": "MPTTIEREFEELDTQRRWQPLYLEIRNESHDYPHRVAKFPENRNRNRYRDVSPYDHSRVKLQNAENDYINASLVDIEEAQRSYILTQGPLPNTCCHFWLMVWQQKTKAVVMLNRIVEKESVKCAQYWPTDDQEMLFKETGFSVKLLSEDVKSYYTVHLLQLENINSGETRTISHFHYTTWPDFGVPESPASFLNFLFKVRESGSLNPDHGPAVIHCSAGIGRSGTFSLVDTCLVLMEKGDDINIKQVLLNMRKYRMGLIQTPDQLRFSYMAIIEGAKCIKGDSSIQKRWKELSKEDLSPAFDHSPNKIMTEKYNGNRIGLEEEKLTGDRCTGLSSKMQDTMEENSESALRKRIREDRKATTAQKVQQMKQRLNENERKRKRWLYWQPILTKMGFMSVILVGAFVGWTLFFQQNAL"}, "B2": {"name": "Tyrosine-protein phosphatase non-receptor type 2 (Homo sapiens), P17706-2 (parent)", "chain": "MPTTIEREFEELDTQRRWQPLYLEIRNESHDYPHRVAKFPENRNRNRYRDVSPYDHSRVKLQNAENDYINASLVDIEEAQRSYILTQGPLPNTCCHFWLMVWQQKTKAVVMLNRIVEKESVKCAQYWPTDDQEMLFKETGFSVKLLSEDVKSYYTVHLLQLENINSGETRTISHFHYTTWPDFGVPESPASFLNFLFKVRESGSLNPDHGPAVIHCSAGIGRSGTFSLVDTCLVLMEKGDDINIKQVLLNMRKYRMGLIQTPDQLRFSYMAIIEGAKCIKGDSSIQKRWKELSKEDLSPAFDHSPNKIMTEKYNGNRIGLEEEKLTGDRCTGLSSKMQDTMEENSESALRKRIREDRKATTAQKVQQMKQRLNENERKRKRPRLTDT"}}, "data": [{"variants_of": "B1", "details": "with insr_human INSR", "values": [{"variant": "D182A", "effect of a mutation on the interaction": "causing an interaction"}]}, {"variants_of": "B2", "details": "with insr_human INSR", "values": [{"variant": "D182A", "effect of a mutation on the interaction": "causing an interaction"}]}]}
